Here are results for two molecules from patent publication US20250313636A1 (PARAGON THERAPEUTICS, published 2025).

The term koff denotes the rate constant with which the complex falls apart. As usually defined, the kon is the second-order rate constant of association. As usually defined, the EC50 is the concentration that produces a half-maximal response. Low values mean greater potency, high ones weaker potency.

The target in test [1] is T1, α4β1 integrin expressed on cells (UniProt P13612 34-1032; P05556 21-798, limits assumed).
T1 construct: whole, on cells; also called α4β1 on Ramos cells; α4β1 on HuT-78 cells
T1 sequence (P13612 34-1032 limits assumed, chain 1 of 2): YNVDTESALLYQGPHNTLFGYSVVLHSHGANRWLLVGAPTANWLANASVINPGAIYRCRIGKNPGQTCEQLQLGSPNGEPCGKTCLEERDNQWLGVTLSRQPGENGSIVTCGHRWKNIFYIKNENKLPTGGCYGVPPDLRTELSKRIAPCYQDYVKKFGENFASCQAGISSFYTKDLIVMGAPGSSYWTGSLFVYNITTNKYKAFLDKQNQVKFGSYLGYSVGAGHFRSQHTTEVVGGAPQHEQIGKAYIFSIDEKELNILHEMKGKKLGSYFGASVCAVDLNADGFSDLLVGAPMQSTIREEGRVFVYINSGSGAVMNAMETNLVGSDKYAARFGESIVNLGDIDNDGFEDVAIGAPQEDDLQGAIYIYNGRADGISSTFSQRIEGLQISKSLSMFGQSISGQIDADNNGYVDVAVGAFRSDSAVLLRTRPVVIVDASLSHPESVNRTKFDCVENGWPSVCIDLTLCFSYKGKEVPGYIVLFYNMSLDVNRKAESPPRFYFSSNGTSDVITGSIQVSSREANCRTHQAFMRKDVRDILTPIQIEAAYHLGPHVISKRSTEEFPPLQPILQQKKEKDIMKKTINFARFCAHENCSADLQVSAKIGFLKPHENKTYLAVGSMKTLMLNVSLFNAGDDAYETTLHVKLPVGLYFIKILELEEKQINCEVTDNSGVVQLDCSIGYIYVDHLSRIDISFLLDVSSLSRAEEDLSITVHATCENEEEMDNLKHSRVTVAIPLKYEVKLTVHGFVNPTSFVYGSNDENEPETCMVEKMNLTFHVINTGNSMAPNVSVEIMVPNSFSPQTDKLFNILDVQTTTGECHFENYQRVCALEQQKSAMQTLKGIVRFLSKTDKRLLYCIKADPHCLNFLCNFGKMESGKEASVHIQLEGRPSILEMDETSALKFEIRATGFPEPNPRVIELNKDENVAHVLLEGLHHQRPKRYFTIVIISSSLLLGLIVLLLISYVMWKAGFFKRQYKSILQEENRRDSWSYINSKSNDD
T1 sequence (P05556 21-798 limits assumed, chain 2 of 2): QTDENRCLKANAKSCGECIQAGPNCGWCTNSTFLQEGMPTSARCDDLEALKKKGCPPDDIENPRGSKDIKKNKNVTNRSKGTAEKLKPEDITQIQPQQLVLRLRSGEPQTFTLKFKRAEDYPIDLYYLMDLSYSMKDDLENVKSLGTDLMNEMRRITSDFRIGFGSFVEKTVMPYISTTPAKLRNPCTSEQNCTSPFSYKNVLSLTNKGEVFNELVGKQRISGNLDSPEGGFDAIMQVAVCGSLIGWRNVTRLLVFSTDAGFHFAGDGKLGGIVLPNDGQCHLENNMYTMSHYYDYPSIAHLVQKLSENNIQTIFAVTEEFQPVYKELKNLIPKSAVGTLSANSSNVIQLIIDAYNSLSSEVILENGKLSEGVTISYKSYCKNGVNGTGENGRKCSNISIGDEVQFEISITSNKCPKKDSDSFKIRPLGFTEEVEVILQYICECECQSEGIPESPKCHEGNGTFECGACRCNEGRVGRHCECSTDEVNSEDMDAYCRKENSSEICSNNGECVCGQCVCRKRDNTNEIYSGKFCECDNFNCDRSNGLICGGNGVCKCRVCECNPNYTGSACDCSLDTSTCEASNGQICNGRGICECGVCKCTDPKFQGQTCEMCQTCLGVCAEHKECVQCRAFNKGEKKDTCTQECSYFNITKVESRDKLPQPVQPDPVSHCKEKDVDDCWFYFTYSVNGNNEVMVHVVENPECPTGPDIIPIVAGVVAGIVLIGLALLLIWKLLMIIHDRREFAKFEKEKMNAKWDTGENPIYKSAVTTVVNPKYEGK
The test can be described thus: flow cytometry on Ramos cells. As to the method: (§1) Antibody binding to α4β7 integrin or α4β1 integrin expressed on cells was determined using FACS and two cell lines. […] The second cell line was Ramos and is known to only express α4β1. Briefly, cells were cultured and harvested according to standard vendor instructions. Cells were stained with purified antibodies at concentrations of 0 nM, 0.0064 nM, 0.032 nM, 0.16 nM, 0.8 nM, 4 nM, 20 nM, and 100 nM and incubated at 4° C. for 1 hour. Cells were subsequently stained with an Alexa Fluor 488-conjugated goat anti-human IgG secondary antibody at a 1:1000 dilution. Cells were incubated 4° C. for 1 hour, protected from light. Cells were then washed and the MFI of cells in each well were recorded by FACS using a flow cytometer. Subsequent data were analyzed using GraphPad Prism. […] On the other hand, an anti-α4 antibody tested binds to both cell lines.
(In general: In flow cytometry, cells or beads pass a laser one at a time.)

Test [2] deals with T2, recombinant human α4β7 integrin (human, UniProt P13612 34-977; P26010 20-723, limits assumed). Put plainly: SPR, antibody captured on anti-human Fc CM5 chip, recombinant human α4β7 integrin as analyte, 25 °C, 1:1 model. Here is the method:
(§2) Following a stabilization period in running buffer, antibodies previously diluted to 1-1.5 μg/mL were captured on the chip for 30 seconds at a flow rate of 10 μL/min. Subsequently, recombinant human α4β7 integrin was prepared at concentrations of 1.563 nM, 3.125 nM, 6.25 nM, 12.5 nM, 25 nM, 50 nM and 100 nM and injected at a flow rate of 30 μL/min for 180 seconds followed by a dissociation phase with just running buffer at a flow rate of 30 μL/min for 1200 seconds. Samples were injected in a multi-cycle manner over freshly captured mAb, by regenerating the capture surfaces with injection of 10 mM Glycine, pH 1.5. The data was processed and analyzed with SPR analysis software, where sensorgrams were fit to a 1:1 binding model to determine the apparent association (ka) and dissociation rate constants (kd). Their ratio provided the apparent equilibrium dissociation constant or affinity constant (KD=kd/ka).
(In general: Surface plasmon resonance follows binding to a sensor surface in real time, without labels.)

Test [3] deals with T2, recombinant human α4β7 integrin. The test can be described thus: SPR, antibody captured on anti-human Fc CM5 chip, recombinant human α4β7 integrin as analyte, 25 °C, 1:1 model; apparent KD. Here is the method: as §2
Test [4] concerns the target T3, α4β7 integrin expressed on cells (UniProt P13612 34-1032; P26010 20-798, limits assumed). The test can be described thus: cell-based or functional assay.
Test [5] has as its target T3, α4β7 integrin expressed on cells. The test can be described thus: flow cytometry on RPMI-8866 cells (α4β7 only). Here is the method:
as §1

T2 sequence (P13612 34-977 limits assumed, chain 1 of 2): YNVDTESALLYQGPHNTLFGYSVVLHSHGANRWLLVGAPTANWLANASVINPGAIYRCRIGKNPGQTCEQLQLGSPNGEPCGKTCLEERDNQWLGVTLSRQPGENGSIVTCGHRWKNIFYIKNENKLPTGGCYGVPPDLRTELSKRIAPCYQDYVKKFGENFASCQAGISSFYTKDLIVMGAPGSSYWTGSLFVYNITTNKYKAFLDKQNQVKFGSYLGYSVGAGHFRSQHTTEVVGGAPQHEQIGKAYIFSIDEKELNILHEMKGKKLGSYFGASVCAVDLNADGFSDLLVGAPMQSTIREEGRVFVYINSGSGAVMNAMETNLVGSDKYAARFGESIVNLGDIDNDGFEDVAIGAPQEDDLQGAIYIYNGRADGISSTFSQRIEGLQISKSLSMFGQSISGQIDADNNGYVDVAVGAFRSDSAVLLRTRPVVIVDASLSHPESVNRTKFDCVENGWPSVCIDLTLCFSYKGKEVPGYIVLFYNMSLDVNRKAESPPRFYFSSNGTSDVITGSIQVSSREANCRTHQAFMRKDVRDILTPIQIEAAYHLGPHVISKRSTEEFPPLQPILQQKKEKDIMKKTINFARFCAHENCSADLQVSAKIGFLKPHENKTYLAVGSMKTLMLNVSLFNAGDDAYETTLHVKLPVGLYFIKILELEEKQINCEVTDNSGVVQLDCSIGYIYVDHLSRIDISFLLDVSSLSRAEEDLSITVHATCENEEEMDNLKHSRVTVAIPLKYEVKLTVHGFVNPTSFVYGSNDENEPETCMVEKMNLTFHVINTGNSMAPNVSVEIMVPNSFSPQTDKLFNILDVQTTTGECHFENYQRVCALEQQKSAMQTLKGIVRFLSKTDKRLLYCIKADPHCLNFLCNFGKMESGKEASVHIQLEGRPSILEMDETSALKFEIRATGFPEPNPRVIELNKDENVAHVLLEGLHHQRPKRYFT
T2 sequence (P26010 20-723 limits assumed, chain 2 of 2): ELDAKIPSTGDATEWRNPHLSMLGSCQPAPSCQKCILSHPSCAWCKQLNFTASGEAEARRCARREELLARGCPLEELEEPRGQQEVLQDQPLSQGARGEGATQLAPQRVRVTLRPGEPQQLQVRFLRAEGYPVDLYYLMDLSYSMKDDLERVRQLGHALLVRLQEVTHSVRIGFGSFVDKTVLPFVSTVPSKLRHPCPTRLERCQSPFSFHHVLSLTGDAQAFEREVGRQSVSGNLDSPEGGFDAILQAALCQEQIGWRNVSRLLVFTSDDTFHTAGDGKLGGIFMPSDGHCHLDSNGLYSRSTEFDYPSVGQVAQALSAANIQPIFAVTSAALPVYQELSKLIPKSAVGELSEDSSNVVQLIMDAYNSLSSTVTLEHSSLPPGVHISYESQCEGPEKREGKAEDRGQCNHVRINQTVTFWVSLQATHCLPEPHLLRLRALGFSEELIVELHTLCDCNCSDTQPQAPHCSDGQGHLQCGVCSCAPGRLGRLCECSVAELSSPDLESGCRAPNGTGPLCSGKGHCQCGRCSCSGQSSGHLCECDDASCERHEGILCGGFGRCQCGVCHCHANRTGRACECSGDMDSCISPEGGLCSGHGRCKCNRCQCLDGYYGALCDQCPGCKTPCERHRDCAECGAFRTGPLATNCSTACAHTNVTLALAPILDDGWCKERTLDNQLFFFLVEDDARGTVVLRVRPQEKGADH
T3 sequence (P13612 34-1032 limits assumed, chain 1 of 2): as the sequence (P13612 34-1032 limits assumed, chain 1 of 2) above
T3 sequence (P26010 20-798 limits assumed, chain 2 of 2): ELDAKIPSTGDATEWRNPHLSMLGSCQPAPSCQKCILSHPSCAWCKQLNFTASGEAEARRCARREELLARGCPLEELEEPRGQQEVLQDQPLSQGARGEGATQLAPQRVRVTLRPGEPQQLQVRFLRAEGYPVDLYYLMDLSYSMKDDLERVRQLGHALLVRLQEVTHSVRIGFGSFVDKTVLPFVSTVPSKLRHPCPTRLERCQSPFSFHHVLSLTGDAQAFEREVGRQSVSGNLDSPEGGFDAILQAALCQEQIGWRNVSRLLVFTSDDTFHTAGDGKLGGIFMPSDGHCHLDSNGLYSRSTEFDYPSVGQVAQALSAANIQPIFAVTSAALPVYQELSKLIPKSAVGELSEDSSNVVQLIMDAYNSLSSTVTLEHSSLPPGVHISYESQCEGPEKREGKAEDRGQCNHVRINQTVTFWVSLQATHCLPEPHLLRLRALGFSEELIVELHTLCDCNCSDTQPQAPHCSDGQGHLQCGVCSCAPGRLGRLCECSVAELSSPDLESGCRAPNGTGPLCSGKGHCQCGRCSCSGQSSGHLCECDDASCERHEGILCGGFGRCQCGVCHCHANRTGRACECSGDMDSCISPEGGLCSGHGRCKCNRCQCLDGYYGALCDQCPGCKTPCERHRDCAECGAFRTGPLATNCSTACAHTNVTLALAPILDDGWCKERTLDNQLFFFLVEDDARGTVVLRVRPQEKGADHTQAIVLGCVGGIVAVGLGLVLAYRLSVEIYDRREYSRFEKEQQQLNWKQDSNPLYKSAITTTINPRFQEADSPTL

B1: Antibody 1 (antibody, V domains shown)
VH: EVQLVQSGAEVKKPGSSVKVSCKASGGTFTSYWMHWVRQAPGQGLEWMGEIDPSESNTNYNQKFKGRATITADISTSTAYMELSSLRSEDTAVYYCARGGYDGWDYAIDYWGQGTLVTVSS
VL: DVVMTQTPLSLPVTPGQPASISCRSSQSLAKSYGNTYLSWYLQKPGQSPQLLIYGISNRFSGVPDRFSGSGSGTDFTLKISRVEAEDVGVYYCLQGTHQPYTFGQGTKLEIK
notes: It has a human Fc: captured by anti-human Fc in SPR, detected by anti-human IgG in FACS
B1: the binding result in test [1] was “no binding (tested: 100 nM (highest concentration tested))”. For the same molecule, in test [2], the koff came out at 0.000466 s⁻¹ and the kon was 68500 M⁻¹ s⁻¹. Besides, in test [3], the Kd was found to be 6.79 nM. Besides, the “MAdCAM-1 Adhesion Inhibition IC50” value in test [4] was found to be 0.087 nM. In test [5], this molecule returned an EC50 of 0.2 nM.

B2: Antibody 2 (antibody, V domains shown)
VH: EVQLVESGGGVVQPGRSLRLSCAASGYTFTSYWMHWVRQAPGKGLEWIGEIDPSESNTNYNQKFKGRATISVDNSKNTAYLQMSSLRAEDTAVYYCARGGYDGWDYAIDYWGQGTLVTVSS
VL: DVVMTQTPLSLPVTPGQPASISCRSSQSLAKSYGNTYLSWYLQKPGQSPQLLIYGISNRFSGVPDRFSGSGSGTDFTLKISRVEAEDVGVYYCLQGTHQPYTFGQGTKLEIK
notes: as for B1
Take B2: the binding result in test [1] is recorded as “no binding (tested: 100 nM (highest concentration tested))”. Also, in test [2], the koff turned out to be 0.000118 s⁻¹ and the on-rate constant (kon) turned out to be 56400 M⁻¹ s⁻¹. Further, the Kd in test [3] came to 2.1 nM. Moreover, the “MAdCAM-1 Adhesion Inhibition IC50” value in test [4] worked out at 0.15 nM. Besides, in test [5], the EC50 was determined as 0.27 nM.
